Results reported in article PMC12646051.
Blank lines part the entries; values can stand above or below the binder they belong to.

Experiments:
[1] = target: T1, human β2 (hβ2) (human) (UniProt Q9Y691)
T1 sequence: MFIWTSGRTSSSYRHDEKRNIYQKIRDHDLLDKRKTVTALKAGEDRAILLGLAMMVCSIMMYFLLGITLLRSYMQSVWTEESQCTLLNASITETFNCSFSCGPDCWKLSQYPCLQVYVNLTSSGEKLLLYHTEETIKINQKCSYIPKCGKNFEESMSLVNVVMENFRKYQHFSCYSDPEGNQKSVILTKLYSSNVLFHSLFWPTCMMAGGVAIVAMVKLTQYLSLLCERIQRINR

[2] = target: mouse Slo1 (mSlo1) α-subunit (mouse) (UniProt Q08460)
[3] = target: T1, human β2 (hβ2) (human); remark: listed apart in the source
[4] = target: hSlo1EM-TS (modified human Slo1 BK α subunit with a C-terminal twin-strep tag) (human) (UniProt Q12791); assay: pull-down + SEC; as a3 but plasmid weight ratio 1:0.2:1.8 (TR2)
[5] = target: β3-Gρ (full-length human BK β3a subunit with C-terminal eGFP-ρ1D4) (human); assay: pull-down + SEC; TR1 (1:1:1); three-step affinity purification: streptactin XT (Slo1), then anti-FLAG M2 resin (β2) and anti-ρ1D4 resin (β3) one after the other, in either order; eluates, input and flow-through read by dual-colour FSEC
[6] = target: hSlo1EM-TS (modified human Slo1 BK α subunit with a C-terminal twin-strep tag) (human) (UniProt Q12791); assay: as above
[7] = target: β3-Gρ (full-length human BK β3a subunit with C-terminal eGFP-ρ1D4) (human); assay: pull-down + SEC; plasmid weight ratio 1:0.2:1.8 (TR2)
[8] = target: hSlo1EM-TS (modified human Slo1 BK α subunit with a C-terminal twin-strep tag) (human) (UniProt Q12791); assay: pull-down + SEC; as a1 but plasmid weight ratio 1:0.2:1.8 (TR2)
[9] = target: hSlo1EM-TS (modified human Slo1 BK α subunit with a C-terminal twin-strep tag) (human) (UniProt Q12791); assay: pull-down + SEC; HEK293F co-transfected with hSlo1EM-TS, β2-RF and β3-Gρ at plasmid weight ratio 1:1:1 (TR1); digitonin extract; Slo1 held on streptactin XT resin, eluted with 50 mM biotin; eluate read by dual-colour FSEC (Superose 6 Increase; eGFP and mCherry)

Sequence of hSlo1EM-TS (modified human Slo1 BK α subunit with a C-terminal twin-strep tag) (human) (Q12791 whole entry): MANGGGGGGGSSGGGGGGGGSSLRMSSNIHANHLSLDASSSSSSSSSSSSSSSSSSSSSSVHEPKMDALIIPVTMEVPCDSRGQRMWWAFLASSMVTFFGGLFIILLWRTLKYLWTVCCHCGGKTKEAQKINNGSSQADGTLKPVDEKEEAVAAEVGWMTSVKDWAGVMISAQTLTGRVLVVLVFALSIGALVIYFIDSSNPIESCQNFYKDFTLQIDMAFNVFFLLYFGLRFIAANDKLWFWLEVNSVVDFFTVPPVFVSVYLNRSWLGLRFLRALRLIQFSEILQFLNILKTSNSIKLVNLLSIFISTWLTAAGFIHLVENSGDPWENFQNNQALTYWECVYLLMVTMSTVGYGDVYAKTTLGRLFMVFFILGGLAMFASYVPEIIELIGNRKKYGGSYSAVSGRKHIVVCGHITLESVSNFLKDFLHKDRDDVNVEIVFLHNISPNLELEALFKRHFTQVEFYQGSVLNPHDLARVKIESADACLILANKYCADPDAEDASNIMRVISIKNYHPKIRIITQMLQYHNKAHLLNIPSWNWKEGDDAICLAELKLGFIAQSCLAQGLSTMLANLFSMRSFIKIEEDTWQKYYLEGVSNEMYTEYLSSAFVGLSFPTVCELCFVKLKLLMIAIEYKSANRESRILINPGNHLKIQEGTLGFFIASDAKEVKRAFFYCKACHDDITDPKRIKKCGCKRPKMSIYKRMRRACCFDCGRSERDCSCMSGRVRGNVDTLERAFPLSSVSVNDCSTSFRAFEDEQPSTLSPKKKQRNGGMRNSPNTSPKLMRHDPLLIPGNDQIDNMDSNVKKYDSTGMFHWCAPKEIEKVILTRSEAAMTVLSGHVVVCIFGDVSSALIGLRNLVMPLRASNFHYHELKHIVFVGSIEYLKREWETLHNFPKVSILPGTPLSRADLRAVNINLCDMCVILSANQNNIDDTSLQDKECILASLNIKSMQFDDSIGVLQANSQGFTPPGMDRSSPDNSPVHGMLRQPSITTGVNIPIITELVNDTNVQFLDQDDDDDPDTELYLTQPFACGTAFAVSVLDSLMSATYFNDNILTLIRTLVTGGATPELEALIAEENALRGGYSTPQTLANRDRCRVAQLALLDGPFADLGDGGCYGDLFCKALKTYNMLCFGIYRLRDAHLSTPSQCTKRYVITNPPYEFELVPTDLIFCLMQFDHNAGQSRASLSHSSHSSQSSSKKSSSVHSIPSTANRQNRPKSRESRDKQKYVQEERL
Sequence of mouse Slo1 (mSlo1) α-subunit (mouse) (Q08460 whole entry): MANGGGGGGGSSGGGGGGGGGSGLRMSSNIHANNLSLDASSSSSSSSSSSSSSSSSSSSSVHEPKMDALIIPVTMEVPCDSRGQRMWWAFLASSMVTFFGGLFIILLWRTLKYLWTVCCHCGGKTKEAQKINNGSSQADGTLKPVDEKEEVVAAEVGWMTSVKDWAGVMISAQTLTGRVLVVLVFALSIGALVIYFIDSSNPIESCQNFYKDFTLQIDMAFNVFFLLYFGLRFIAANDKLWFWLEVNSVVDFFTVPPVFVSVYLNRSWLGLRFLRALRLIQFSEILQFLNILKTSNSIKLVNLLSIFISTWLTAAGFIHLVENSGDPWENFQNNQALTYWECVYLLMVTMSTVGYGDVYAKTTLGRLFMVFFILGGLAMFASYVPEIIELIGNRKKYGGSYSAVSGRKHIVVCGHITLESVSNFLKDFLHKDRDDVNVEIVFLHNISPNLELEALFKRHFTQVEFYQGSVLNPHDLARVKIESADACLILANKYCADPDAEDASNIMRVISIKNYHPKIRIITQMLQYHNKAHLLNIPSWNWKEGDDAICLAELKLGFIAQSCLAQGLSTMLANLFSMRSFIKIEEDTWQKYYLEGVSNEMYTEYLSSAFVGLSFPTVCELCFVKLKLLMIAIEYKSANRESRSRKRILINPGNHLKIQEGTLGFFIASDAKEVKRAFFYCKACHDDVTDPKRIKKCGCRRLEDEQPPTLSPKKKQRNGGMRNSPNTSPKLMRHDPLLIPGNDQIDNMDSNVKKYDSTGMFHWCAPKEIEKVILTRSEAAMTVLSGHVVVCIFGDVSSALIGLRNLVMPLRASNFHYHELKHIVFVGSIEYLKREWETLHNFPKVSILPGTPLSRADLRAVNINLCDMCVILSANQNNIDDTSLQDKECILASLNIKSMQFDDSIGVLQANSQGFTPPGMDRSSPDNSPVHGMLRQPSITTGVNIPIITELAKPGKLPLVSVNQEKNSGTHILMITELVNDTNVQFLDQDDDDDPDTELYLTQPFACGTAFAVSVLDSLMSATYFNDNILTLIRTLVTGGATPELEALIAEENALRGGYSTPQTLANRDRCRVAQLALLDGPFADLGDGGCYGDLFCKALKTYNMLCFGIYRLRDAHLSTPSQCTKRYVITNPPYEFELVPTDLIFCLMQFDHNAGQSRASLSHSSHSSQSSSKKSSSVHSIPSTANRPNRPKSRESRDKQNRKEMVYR

global fit of the trypsin digestion time courses of BK currents (mSlo1 with β2:β3a injection ratios 1:4 to 1:24, β2 alone, β3a alone): random mixing model against segregated model (fold lower sum of squares) [1]: 2.5 | time course of trypsin removal of inactivation of α+β3a currents in excised oocyte patches, described by I(t)=(1-exp(-t/τ))^4; β subunits per channel (β subunits per channel) [2]: 4 | single-channel recordings from oocytes with BK α and 1:8 β2:β3a: of 16 patches with β3a-type tail openings, those that also show β2-like recovery from inactivation without reopening (of 16 patches) [3]: 14
B1: mouse β3a (mβ3a) (natural protein)
chain: MQPFSIPVQITLQGGRRRQGRTALPASGKINGDPLKVHPKLPSSAGEDRAMLLGVAMMASSVLMFFLLGTTVLKPFMLRSPREESNCTTVHTHIVDDGLDFSFTCEGSCQDHGRSPCLQVFVNLSHSGQKVLLHYDDEAIRTNPKCFYTPKCHGDRDDLLNSVLDIKEFFDHNNGTFPCFYSPDGPLGVVLRKSGHKVVFHCLFWPLLTLLGGALIVGLVRLTQHLSFQCEQYSTVVRA

time course of trypsin removal of inactivation of α+β2 currents in excised oocyte patches, described by I(t)=(1-exp(-t/τ))^4; β subunits per channel (β subunits per channel) [2]: 4
B2: human β2 (hβ2) (natural protein)
chain: T1 sequence

stoichiometry N (β2 per 4 Slo1) [4]: 1.9 | percent of Slo1–β3 complexes that are ternary (hold β2 too) [5]: 49% | stoichiometry N (β2 per 4 Slo1) [6]: 2.8 | percent of Slo1–β3 complexes that are ternary (hold β2 too) [7]: 37% | molar ratio of β2-RF to β3-Gρ affiliated with Slo1 [8]: 1.08 mol/mol | molar ratio of β2-RF to β3-Gρ affiliated with Slo1 [9]: 7.32 mol/mol
B3: β2-RF (full-length human BK β2 subunit with C-terminal mCherry-FLAG) (natural protein)
chain: T1 sequence
